This note sets out measurements from patent US6022856.

In this test the target is type-2 neurotensin receptor of rats (rNT-R2) (rat). Kind of test: displacement of 0.2 nM 125I-neurotensin from COS-3 cells transfected with rNT-R2.

Take “neuromedin N (from UniProt P30990) (peptide)”: the IC50 worked out at 5.1 nM.
